One experiment has as its target T1, G3BP1 (Mus musculus, UniProt P97855).
T1 construct: Genes of full-length mouse G3BP1, G3BP1-eGFP; thrombin protease cleavage site (C); His6 (C); made in house; host or cells: Escherichia coli rosetta (DE3)
Briefly: G3BP1 turbidity assay (OD395 nm). Type of experiment: biochemical. Conditions: G3BP1 30 μM, ratio range 0.75 to 25, room temperature, 10 minutes. Here is the method: The turbidity of G3BP1 (30 μM) in the presence of various concentrations of Champ-E, Champ-D, Champ-K, or Champ-Q was measured at a wavelength of 395 nm. Briefly, G3BP1 protein ([…]) and polypeptides Champ-E (RJK001), Champ-D (RJK002), Champ-K (RJK012) and Champ-Q (RJK005) were mixed well in a ratio range of 0.75 to 25 at room temperature for 10 minutes prior to turbidity assays. Absorbance at 395 nm (OD395 nm) was monitored at room temperature using Nanodrop ONE (Thermo Fisher Scientific, Inc.). […] The turbidity level reflects the degree of phase separation.
Briefly, the G3BP1 protein and the above-mentioned peptides were mixed at room temperature for 10 minutes prior to turbidity assays. 30 μM G3BP1 and peptide were mixed well in a ratio range of 0.75 to 25 before test. Absorbance at 395 nm (OD395 nm) was monitored at room temperature using Nanodrop ONE (Thermo Fisher Scientific, Inc.).
We followed the Turbidity Assays experiment as previously reported. Briefly, G3BP1 turbidity analysis were at room temperature and γD-crystallin protein was at 4° C. Proteins and Champ-E(RJK001), Champ-K, Champ-D or mutants are mixed at room temperature for 10 minutes prior to turbidity assays. 20 μM G3BP1 and 50 mg/ml(2.5 mM) γD-crystallin and peptide were mixed well in a ratio range of 0.75 to 25 before test. Absorbance at 395 nm (OD395 nm) was monitored at room temperature using Nanodrop ONE (Thermo Fisher Scientific, Inc.).

For experiment [1], the system named is crystallin proteins of the lens from cataract patients. Briefly: Soluble crystallin in cataract lens grinding fluid by western blot (anti-βB1 crystallin). Details: species or system human. Conditions: 20 ul 2.5 mM RJK001 in 2 ul grinding fluid, RT 10 min. Here is the method: Quantitative analysis was performed using densitometry of crystallin proteins by western blot analysis of the supernatant or insoluble fraction of cell lysates.
Quantitative analysis was performed using densitometry of crystallin proteins by western blot analysis of the supernatant or insoluble fraction of lens lysates. Collect one intact eye lenses from cataract patients. Put it in 2 ml Eppendorf tube containing 700 ul protein solubilization buffer, Grind the complete lens at 4° C., 30s once for 3 times with Electric grinder to obtain 1 ml grinding fluid, add 20 ul 2.5 mM RJK001 in 2 ul grinding fluid as the experimental group, add 20 ul protein dissolving solution in 2 ul grinding fluid as a control, place it at RT for 10 min, centrifuge at 13000 rpm and take the supernatant for western blotting, After blocking with 5% milk, membrane were incubated with anti-βB1 crystallin (Santacruz, sc-48335, 1:3000) overnight at 4° C., Membrane were incubated with secondary antibodies for 1 h at room temperature, then the blots were detected by the enhanced chemiluminescence.
C-terminal fusion cell-penetrating peptide RJK001 and N-terminal fusion cell-penetrating peptide RJK012 were purified in vitro and added into SH-SY5Y cell. Cells were harvested at 1 h, 4 h, 8 h and 24 h respectively and were washed with PBS. Total proteins were extracted from SH-SY5Y cells with lysis buffer. […]

Data on one sequence can be found in patent publication US20250352611A1, “METHODS FOR TREATING CATARACTS USING POLYPEPTIDES” (REJUKON BIOPHARM INC., priority 2022, published 2025).

T1 sequence (P97855 whole entry): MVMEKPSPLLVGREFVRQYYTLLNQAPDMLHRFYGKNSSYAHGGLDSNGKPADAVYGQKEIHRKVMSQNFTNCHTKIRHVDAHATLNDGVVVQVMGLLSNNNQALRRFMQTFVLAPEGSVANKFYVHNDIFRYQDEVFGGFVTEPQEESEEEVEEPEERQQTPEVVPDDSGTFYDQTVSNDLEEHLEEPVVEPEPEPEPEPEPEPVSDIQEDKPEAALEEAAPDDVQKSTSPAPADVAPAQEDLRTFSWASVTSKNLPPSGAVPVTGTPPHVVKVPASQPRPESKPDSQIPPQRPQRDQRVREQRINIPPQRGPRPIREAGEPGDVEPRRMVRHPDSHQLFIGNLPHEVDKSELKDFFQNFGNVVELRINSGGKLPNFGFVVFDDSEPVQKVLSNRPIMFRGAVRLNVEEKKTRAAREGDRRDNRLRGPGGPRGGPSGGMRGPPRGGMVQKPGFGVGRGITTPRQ

Consider “TEPQEESEEEVEEPEERQQTPEVVPDDSGTFYDQTVSNDLE [RJK001, polypeptide with hydrophilic and hydrophobic segment, expressed in E. coli]”, for which, in the experiment with G3BP1, the “turbidity of G3BP1 (OD395 nm)” value is “reduced the turbidity in a concentration dependent manner”. The “solubility of crystallin proteins of the lens (supernatant western blot)” value in experiment [1] is listed as “could improve the solubility of crystallin proteins”.
